# Assay results reported in doi:10.1101/2022.10.14.512215 (bioRxiv, 2022).
# Positions count from the first letter of the chain named. Where “and” joins values, the source holds several entries; their conditions need not be identical. Equal values may be shown once.
# B1: RIP2K^1-317 (kinase domain of human RIP2, residues 1-317) (domain or fragment)
# chain: MNGEAICSALPTIPYHKLADLRYLSRGASGTVSSARHADWRVQVAVKHLHIHTPLLDSERKDVLREAEILHKARFSYILPILGICNEPEFLGIVTEYMPNGSLNELLHRKTEYPDVAWPLRFRILHEIALGVNYLHNMTPPLLHHDLKTQNILLDNEFHVKIADFGLSKWRMMSLSQSRSSKSAPEGGTIIYMPPENYEPGQKSRASIKHDIYSYAVITWEVLSRKQPFEDVTNPLQIMYSVSQGHRPVINEESLPYDIPHRARMISLIESGWAQNPDERPSFLKCLIELEPVLRTFEEITFLEAVIQLKKTKLQSV
# B2: XIAP BIR2^124-240 (domain or fragment)
# chain: GPRDHFALDRPSETHADYLLRTGQVVDISDTIYPRNPAMYSEEARLKSFQNWPDYAHLTPRELASAGLYYTGIGDQVQCFCCGGKLKNWEPCDRAWSEHRRHFPNCFFVLGRNLNIRSE
# B3: XIAP BIR2AG^124-240 (domain or fragment)
# chain: B2 chain with C81A, C92G
# B4: XIAP BIR2^93-240 (domain or fragment)
# chain: GPINGFYLENSATQSTNSGIQNGQYKVENYLGSRDHFALDRPSETHADYLLRTGQVVDISDTIYPRNPAMYSEEARLKSFQNWPDYAHLTPRELASAGLYYTGIGDQVQCFCCGGKLKNWEPCDRAWSEHRRHFPNCFFVLGRNLNIRSE
# B5: XIAP BIR2^154-240 (domain or fragment)
# chain: YPRNPAMYSEEARLKSFQNWPDYAHLTPRELASAGLYYTGIGDQVQCFCCGGKLKNWEPCDRAWSEHRRHFPNCFFVLGRNLNIRSE
# B6: XIAP BIR2AG^154-240 (domain or fragment)
# chain: B5 chain with C49A, C60G
# B7: XIAP BIR2^93-263 (domain or fragment)
# chain: GPINGFYLENSATQSTNSGIQNGQYKVENYLGSRDHFALDRPSETHADYLLRTGQVVDISDTIYPRNPAMYSEEARLKSFQNWPDYAHLTPRELASAGLYYTGIGDQVQCFCCGGKLKNWEPCDRAWSEHRRHFPNCFFVLGRNLNIRSESDAVSSDRNFPNSTNLPRNPSMA
# B8: XIAP BIR2^124-263 (domain or fragment)
# chain: GPRDHFALDRPSETHADYLLRTGQVVDISDTIYPRNPAMYSEEARLKSFQNWPDYAHLTPRELASAGLYYTGIGDQVQCFCCGGKLKNWEPCDRAWSEHRRHFPNCFFVLGRNLNIRSESDAVSSDRNFPNSTNLPRNPSMA
# Experiments:
# [1] = target: the molecule itself; test: native MS
# [2] = target: B1; test: native MS
# [3] = target: B1; test: NMR translational diffusion
# [4] = target: RIP2K^1-300 (kinase domain of human RIP2, residues 1-300) (human, UniProt O43353 1-300); test: MST
# [5] = target: B1; test: cryo-EM structure
Binder,stoichiometry N [2],binding result [4],further results
B1,,,stoichiometry N [1]: 2
B2,1 RIP2K per XIAP BIR2 (2:2) and 2 RIP2K per XIAP BIR2 (2:1),,
B3,1 RIP2K per XIAP BIR2 (2:2),,stoichiometry N [3]: 2 RIP2 per BIR2 (1:2 BIR2:RIP2)
B4,,binds,
B5,1 RIP2K per XIAP BIR2 (2:2),,Kd [4]: 85.6 ± 18.7 nM; stoichiometry N [5]: 2 RIP2K per XIAP BIR2 (2:1)
B6,2 RIP2K per XIAP BIR2 (2:1) and 1 RIP2K per XIAP BIR2 (2:2),,
B7,,binds,
B8,,binds,
